# ± gives the standard deviation of the averaged measurements.
# Tested on: ATP
# Test: switch fluorescence ratio, 500 uM ATP over buffer (Cy3 cluster intensity, sum of 5 cycles each) (fold (ratio)); higher = stronger signal-on switching upon ATP binding; sequences stand for … in TCGTCGGCAGCGTCAGATGTGTATAAGAGACAGTTTTTTTTTTTTTTTTTTTTTTTTT…TC
# Conditions: aptamer strand: ATP DNA aptamer (quencher-CACCTGGGGGAGTATTGCGGAGGAAGG + anchor), 100 nM annealed; ATP concentration: 500 uM
# How it was run: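 Values give the fluorescence ratio for each switch-domain sequence, averaged from per-cluster ratios of summed target-cycle to summed buffer-cycle Cy3 intensity. The Cy3-labelled switching-strand clusters sat on a modified Illumina MiSeq flow-cell, were annealed to 100 nM quencher-labelled ATP aptamer, and were imaged in selection buffer, then after 15 min with 500 uM ATP at 22 °C. Five cycles ran with NaOH stripping and re-annealing between them, and clusters outside 100-1000 RFU were excluded.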
# 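Further: ATP exposure 15 min at 22 °C before imaging.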
row,Sequence,switch fluorescence ratio
1,TAGGGTCGT,0.9932 ± 0.0024
2,TAGGGTGGGA,0.99 ± 0.025
3,TAGGGTGGGC,0.954 ± 0.028
4,TAGGGTTAAT,1.03 ± 0.038
5,TAGGGTTGGG,1 ± 0.031
6,TAGGTAAGGG,0.99 ± 0.026
7,TAGGTAATTT,0.968 ± 0.041
8,TAGGTCAATC,1.026 ± 0.0029
9,TAGGTCCTTG,0.9851 ± 0.0061
10,TAGGTCGGGA,0.976 ± 0.02
11,TAGGTCTACG,1.02 ± 0.019
12,TAGGTCTTGC,1.01 ± 0.033
13,TAGGTGAGTT,1.04 ± 0.047
14,TAGGTGCCGT,1 ± 0.076
15,TAGGTGCTTC,1.029 ± 0.0099
16,TAGGTGGTCC,0.9892 ± 0.0014
17,TAGGTGGTGC,0.986 ± 0.045
18,TAGGTGTATG,1.01 ± 0.033
19,TAGGTGTGTT,0.981 ± 0.019
20,TAGGTGTTGG,1.02 ± 0.007
21,TAGGTGTTTG,0.999 ± 0.018
22,TAGGTTCGAG,0.985 ± 0.011
23,TAGGTTGAAT,0.984 ± 0.019
24,TAGGTTGCGA,0.996 ± 0.021
25,TAGGTTTGAA,0.9922 ± 0.0018

row,Sequence,switch fluorescence ratio
1,TAGGTTTGGT,1.018 ± 0.0063
2,TAGGTTTGTG,0.993 ± 0.03
3,TAGTACAGGC,1.06 ± 0.015
4,TAGTACTTTA,1.046 ± 0.0071
5,TAGTAGATTA,0.982 ± 0.012
6,TAGTAGTGAG,0.985 ± 0.013
7,TAGTATAGGA,0.973 ± 0.056
8,TAGTATGTGT,0.9576 ± 0.0043
9,TAGTCATGAG,0.981 ± 0.017
10,TAGTCATTGA,1.012 ± 0.0021
11,TAGTCGAGGG,0.971 ± 0.024
12,TAGTCGCGTA,1.05 ± 0.035
13,TAGTCTCTTG,1 ± 0.015
14,TAGTGAATTT,1 ± 0.07
15,TAGTGACAGC,1.04 ± 0.014
16,TAGTGAGGCG,0.926 ± 0.0095
17,TAGTGATGTT,0.983 ± 0.018
18,TAGTGATTGC,0.988 ± 0.025
19,TAGTGCAAGA,1.0334 ± 0.00052
20,TAGTGCCGGG,1.06 ± 0.07
21,TAGTGGACGG,0.986 ± 0.034
22,TAGTGGCTTA,0.98 ± 0.042
23,TAGTGGGCGA,1.01 ± 0.067
24,TAGTGGGGCA,0.966 ± 0.033
25,TAGTGGGGGA,0.995 ± 0.015

row,Sequence,switch fluorescence ratio
1,TAGTGGTCCA,0.98 ± 0.03
2,TAGTGTGGGC,0.999 ± 0.017
3,TAGTGTTTCT,1.01 ± 0.018
4,TAGTGTTTGT,0.979 ± 0.017
5,TAGTGTTTTT,0.9775 ± 0.0093
6,TAGTTAGGGG,1.01 ± 0.058
7,TAGTTATGTG,0.9513 ± 0.0043
8,TAGTTCAGGA,1.05 ± 0.036
9,TAGTTCGTTT,0.998 ± 0.016
10,TAGTTGAGTT,0.982 ± 0.029
11,TAGTTGATAA,0.996 ± 0.018
12,TAGTTGGAAG,1.021 ± 0.0048
13,TAGTTGGATG,1 ± 0.038
14,TAGTTGGGCT,0.961 ± 0.032
15,TAGTTGGGGA,1.03 ± 0.033
16,TAGTTGTTGT,0.981 ± 0.049
17,TAGTTTAATT,0.998 ± 0.015
18,TAGTTTCGGG,0.997 ± 0.05
19,TAGTTTTCTG,0.982 ± 0.017
20,TAGTTTTGTG,1.01 ± 0.062
21,TAGTTTTTGT,1.01 ± 0.049
22,TATAAAAACT,1.01 ± 0.021
23,TATAAAAGGG,1.03 ± 0.078
24,TATAAAATCT,1.02 ± 0.082
25,TATAAACCGC,1.22 ± 0.11

row,Sequence,switch fluorescence ratio
1,TATAAAGAGC,1.08 ± 0.081
2,TATAAAGGGA,1.04 ± 0.029
3,TATAAAGTGG,1.03 ± 0.022
4,TATAAATGGC,1.01 ± 0.029
5,TATAAATGTG,0.978 ± 0.027
6,TATAAATTGG,1 ± 0.032
7,TATAACCTGT,1.015 ± 0.0089
8,TATAACTATT,0.999 ± 0.042
9,TATAACTTAA,1.03 ± 0.026
10,TATAAGAAAA,0.978 ± 0.013
11,TATAAGACAA,1.02 ± 0.022
12,TATAAGCACG,1.096 ± 0.0066
13,TATAAGGCGC,0.949 ± 0.032
14,TATAAGGGGA,1 ± 0.039
15,TATAAGGTCC,0.98 ± 0.019
16,TATAAGTACA,1.38 ± 0.04
17,TATAAGTACG,1.27 ± 0.016
18,TATAAGTAGT,0.956 ± 0.011
19,TATAAGTTAT,0.993 ± 0.029
20,TATAAGTTTG,0.999 ± 0.015
21,TATAATAGCT,1.02 ± 0.023
22,TATAATATCG,0.961 ± 0.015
23,TATAATATTT,1 ± 0.021
24,TATAATCGGG,0.989 ± 0.015
25,TATAATTGGG,0.9921 ± 0.0015

row,Sequence,switch fluorescence ratio
1,TATAATTTTT,1.03 ± 0.074
2,TATACAACGA,1.03 ± 0.021
3,TATACAATTG,1.01 ± 0.017
4,TATACACATT,1.02 ± 0.035
5,TATACAGAGG,0.983 ± 0.032
6,TATACGAATT,1.02 ± 0.074
7,TATACGGAAG,1.02 ± 0.046
8,TATAGACTTA,0.994 ± 0.026
9,TATAGAGATG,1.01 ± 0.036
10,TATAGCATCT,1.047 ± 0.01
11,TATAGCCCGT,1.02 ± 0.016
12,TATAGCGGGG,1.02 ± 0.015
13,TATAGGCGCT,0.994 ± 0.035
14,TATAGGCGGT,1.12 ± 0.2
15,TATAGGGGTT,1.02 ± 0.061
16,TATAGGTCAG,0.985 ± 0.011
17,TATAGGTGCG,0.9891 ± 0.0049
18,TATAGGTTT,1.01 ± 0.02
19,TATAGTATTG,0.9861 ± 0.0087
20,TATAGTGGCC,0.998 ± 0.022
21,TATAGTGGCG,1.02 ± 0.051
22,TATAGTTCGG,1.01 ± 0.013
23,TATATAAAGA,1.03 ± 0.035
24,TATATAAGAT,1 ± 0.058
25,TATATAATTT,0.987 ± 0.012

row,Sequence,switch fluorescence ratio
1,TATATACGGG,1.05 ± 0.032
2,TATATAGGGA,0.981 ± 0.026
3,TATATATCTC,0.9917 ± 0.0089
4,TATATCAGTC,1.02 ± 0.058
5,TATATCGGCT,1.03 ± 0.023
6,TATATCTAAA,0.973 ± 0.044
7,TATATGACTT,1 ± 0.012
8,TATATGAGAT,1.01 ± 0.017
9,TATATGGAAG,0.984 ± 0.03
10,TATATGGGAT,1.006 ± 0.0035
11,TATATGGGTA,0.982 ± 0.057
12,TATATGTCGT,0.99 ± 0.01
13,TATATGTTTT,0.968 ± 0.013
14,TATATTACTG,1.09 ± 0.12
15,TATATTCGCT,0.988 ± 0.012
16,TATATTTAGC,1 ± 0.033
17,TATATTTG,0.9883 ± 0.0065
18,TATATTTGTC,1.04 ± 0.032
19,TATCAAAAAT,0.994 ± 0.013
20,TATCAACCTT,1.25 ± 0.34
21,TATCACAGTT,1.01 ± 0.035
22,TATCACTTTA,1.088 ± 0.0043
23,TATCAGAGGA,1.04 ± 0.013
24,TATCAGGTCC,0.9982 ± 0.0069
25,TATCAGTTCG,0.9961 ± 0.006

row,Sequence,switch fluorescence ratio
1,TATCATCGGT,1 ± 0.047
2,TATCATGCCG,0.967 ± 0.037
3,TATCATGTCG,0.986 ± 0.031
4,TATCCAATCA,0.9719 ± 0.0081
5,TATCCATGGA,1.01 ± 0.026
6,TATCCCATAC,1.49 ± 0.073
7,TATCCCGGTG,1.82 ± 0.043
8,TATCCTGTTT,1.04 ± 0.011
9,TATCGACGTT,0.97 ± 0.038
10,TATCGCCGAA,0.997 ± 0.037
11,TATCGCGTTC,1.09 ± 0.078
12,TATCGGCAAT,4.42 ± 0.76
13,TATCGGGGGA,0.985 ± 0.061
14,TATCGGGGT,0.989 ± 0.013
15,TATCGTAGGG,1 ± 0.022
16,TATCGTCTAC,1.015 ± 0.0033
17,TATCGTGAGT,0.9822 ± 0.0071
18,TATCTCTACT,1.03 ± 0.017
19,TATCTGTCAA,1.11 ± 0.032
20,TATCTGTGCC,0.96 ± 0.054
21,TATCTGTTTC,1.01 ± 0.016
22,TATCTTTGCG,0.965 ± 0.01
23,TATGAAAGGC,0.991 ± 0.053
24,TATGAAAGTA,0.999 ± 0.033
25,TATGAACCGT,0.984 ± 0.052

row,Sequence,switch fluorescence ratio
1,TATGAAGTTG,0.985 ± 0.015
2,TATGAATGGG,1.01 ± 0.021
3,TATGAGCCTG,0.968 ± 0.047
4,TATGAGGTAA,1.02 ± 0.028
5,TATGAGGTTG,1 ± 0.03
6,TATGAGTAAG,0.978 ± 0.027
7,TATGATCACG,0.995 ± 0.011
8,TATGATCAGG,0.9933 ± 0.0025
9,TATGATGGGA,0.9911 ± 0.0093
10,TATGATTGGG,1.008 ± 0.0013
11,TATGCACGGA,1.07 ± 0.09
12,TATGCCAGCG,1.01 ± 0.025
13,TATGCGAGTC,0.952 ± 0.036
14,TATGCGTCGA,0.979 ± 0.013
15,TATGCGTTGG,1.007 ± 0.0024
16,TATGCTAGC,1.03 ± 0.091
17,TATGCTAGGG,0.977 ± 0.036
18,TATGCTAGTA,0.992 ± 0.025
19,TATGCTGAAT,1 ± 0.015
20,TATGGAATGT,0.998 ± 0.0062
21,TATGGAGGAG,0.981 ± 0.017
22,TATGGAGGGA,0.996 ± 0.021
23,TATGGAGTTT,1.01 ± 0.013
24,TATGGATTGT,1.01 ± 0.04
25,TATGGCCAAT,1.03 ± 0.03

# Source: the supplement of paper PMC10126150
